Results from patent US20150239968A1.

How the values were obtained:
[1] = target: recombinant mature human GDF-15 protein (as expressed in Baculovirus-transfected insect cells) (human) (UniProt Q99988); test: SPR (Biorad ProteOn XPR36, GLC chip), GDF-15 from insect cells immobilized, antibody as analyte, 1:1 Langmuir, 25° C.
[2] = target: recombinant mature human GDF-15 protein derived from expression in E. coli (human) (UniProt Q99988); test: SPR (Biorad ProteOn XPR36, GLC chip), GDF-15 from E. coli immobilized, antibody as analyte
[3] = target: recombinant mature human GDF-15 protein (as expressed in Baculovirus-transfected insect cells) (human) (UniProt Q99988); test: SPR (Biorad ProteOn XPR36, GLC chip), KD=koff/kon, GDF-15 from insect cells immobilized
[4] = target: GDF-15 produced by the prostate cancer cell line LnCap (UniProt Q99988); test: cell-based or functional assay

koff [1]: 0.00043 s⁻¹
kon [1]: 540000 M⁻¹ s⁻¹
deviation of rate constants against GDF-15 derived from insect cells [2]: 45%
fold difference of affinity values against GDF-15 derived from insect cells [2]: < 2 fold
Kd [3]: 0.79 nM
proliferation of LnCap cells (Alamar Blue assay) after 72 hrs [4]: 30%
Substance: monoclonal anti-human GDF-15 mAb-B1-23 (antibody)
